Experimental data reported in patent US20250296971A1, “GASTRIC INHIBITORY PEPTIDE RECEPTOR LIGANDS” (priority 2021, published 2025).
*1 amine or outer side, *2 acyl side, *3 side chain or, on linkers, in order; H or OH if unused. Where a SMILES comes first, the peptide text is derived from it. Bridges are numbered along the chain shown (N, C = ends). [ ]: non-standard residue; d: D form. The star is where a group is joined. X5 = NC(=O)[C@H](CCCCNC(=O)CN1CCN(CC(=O)O)CCN(CC(=O)O)CCN(CC(=O)O)CC1)NC(=O)CCC(=O)NCCCOCCOCCOCCCN*; Ttds = 1,13-diamino-4,7,10-trioxatridecan-succinamic acid, NCCCOCCOCCOCCCNC(=O)CCC(=O)*; X3 = O=C(O)CN1CCN(CC(=O)O)CCN(CC(=O)NCCCOCCOCCOCCCN*)CCN(CC(=O)O)CC1; NH(1-deoxy-D-glucityl) = OC[C@@H](O)[C@@H](O)[C@H](O)[C@@H](O)CN*; Pro(trans-4-NH2) = O=C([C@@H]1C[C@@H](N[*:3])CN1[*:1])[*:2]; DOTA = O=C(O)CN1CCN(CC(=O)O)CCN(CC(=O)*)CCN(CC(=O)O)CC1; Trp(5-Cl) = N[C@@H](Cc1c[nH]c2ccc(Cl)cc12)C(=O)O; Pyridine(2,6-diCH2) = c1cc(C[*:1])nc(C[*:2])c1; Trp(6-F) = N[C@@H](Cc1c[nH]c2cc(F)ccc12)C(=O)O; Pro(4R-NH2) = N[C@H]1CN[C@H](C(=O)O)C1; 1Nal = N[C@@H](Cc1cccc2ccccc12)C(=O)O; Pro(3S-OH) = O=C(O)[C@H]1NCC[C@@H]1O; mXylylene = c1cc(C[*:1])cc(C[*:2])c1; Glutaryl = O=C(CCCC(=O)[*:2])[*:1]; X7 = c1cc(CSCCN[*:2])cc(C[*:1])c1; Hyp = O=C(O)[C@@H]1C[C@@H](O)CN1; X1 = O=C(CN1CCC(N[*:1])CC1)[*:2]; Cysteamide = C(CS[*:3])N[*:1]; Suc = O=C(CCC(=O)[*:2])[*:1]; hLeu = CC(C)CC[C@H](N)C(=O)O; αMeS = C[C@](N)(CO)C(=O)O; Api = NC1(C(=O)O)CCNCC1; Thp = NC1(C(=O)O)CCOCC1; Aib = CC(C)(N)C(=O)O; Sar = CNCC(=O)O

T1: GIPR (CHO-K1-hGIPR cells) (Homo sapiens, UniProt P48546)
T1 construct: host or cells: CHO-K1
T1 sequence (P48546 22-466): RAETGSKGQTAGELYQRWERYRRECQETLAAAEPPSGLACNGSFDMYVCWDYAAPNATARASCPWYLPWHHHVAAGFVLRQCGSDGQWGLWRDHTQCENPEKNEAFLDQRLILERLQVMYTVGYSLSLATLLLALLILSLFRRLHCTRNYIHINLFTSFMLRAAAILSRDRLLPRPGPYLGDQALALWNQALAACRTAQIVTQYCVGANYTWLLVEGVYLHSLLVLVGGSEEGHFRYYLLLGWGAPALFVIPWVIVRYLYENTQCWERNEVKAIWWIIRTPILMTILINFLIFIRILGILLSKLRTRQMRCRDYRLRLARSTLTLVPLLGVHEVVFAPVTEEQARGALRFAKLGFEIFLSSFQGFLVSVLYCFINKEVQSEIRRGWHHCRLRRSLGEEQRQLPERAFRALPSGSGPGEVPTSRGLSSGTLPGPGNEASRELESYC

B1: DOTA-Ttds-Asp-Trp-5Clw-Nmg-Glu-leu-[Cys(3MeBn)-Aib-Leu-Ile-AET] (peptide)
peptide: {DOTA-Ttds}-DW[Trp(5-Cl)][Sar]E[dL]C[Aib]LI[Cysteamide]
modifications: linker (positions not given here) via mXylylene; not fully specified (bridges); printed as DOTA-Ttds-Asp-Trp-5Clw-Nmg-Glu-leu-[Cys(3MeBn)-Aib-Leu-Ile-AET]
B2: DOTA-Ttds-Asp-Trp-5Clw-Pro-Glu-leu-[Cys(3MeBn)-Ams-Leu-Ile-AET] (peptide)
peptide: {DOTA-Ttds}-DW[Trp(5-Cl)]PE[dL]C[αMeS]LI[Cysteamide]
modifications: linker (positions not given here) via mXylylene; not fully specified (bridges); printed as DOTA-Ttds-Asp-Trp-5Clw-Pro-Glu-leu-[Cys(3MeBn)-Ams-Leu-Ile-AET]
B3: DOTA-Ttds-Asp-Trp-5Clw-H3p-Glu-leu-[Cys(3MeBn)-Aib-Leu-Ile-AET] (peptide)
peptide: {DOTA-Ttds}-DW[Trp(5-Cl)][Pro(3S-OH)]E[dL]C[Aib]LI[Cysteamide]
modifications: linker 7-11 via mXylylene
B4: DOTA-Ttds-Asp-6Fw-5Clw-Pro-Glu-leu-[Cys(3MeBn)-Aib-Leu-Ile-AET] (peptide)
peptide: {DOTA-Ttds}-D[Trp(6-F)][Trp(5-Cl)]PE[dL]C[Aib]LI[Cysteamide]
modifications: linker 7-11 via mXylylene

Each molecule was assayed against T1, GIPR (CHO-K1-hGIPR cells) (assay: FACS binding assay). Details: competition with 20 nM GIP-057, 4° C. for 1 hour, read-out: pIC50 Category (converted).
Summary of the method: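 CHO-K1 cells expressing human GIPR, washed in PBS/1% FCS, then stained with 1 μg/mL APC-streptavidin for 30 min on ice.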

Molecule	IC50
CC[C@H](C)[C@@H]1NC(=O)[C@H](CC(C)C)NC(=O)C(C)(C)NC(=O)[C@@H](NC(=O)[C@H](CC(C)C)NC(=O)[C@H](CCC(=O)O)NC(=O)[C@@H]2CCCN2C(=O)[C@H](Cc2cccc3ccccc23)NC(C)=O)CSCc2cccc(c2)CSC[C@@H](C(=O)NCCCOCCOCCOCCCNC(=O)CCC(=O)N[C@@H](CCCCNC(=O)CN2CCN(CC(=O)O)CCN(CC(=O)O)CCN(CC(=O)O)CC2)C(N)=O)NC1=O [GIP-298, Ac-1Ni-Pro-Glu-Leu-[Cys(3MeBn)-Aib-Leu-Ile-Cys]-Ttds-Lys(DOTA)-NH2] (Ac-[1Nal]PELC[Aib]LIC-X5; linker 5-9 via mXylylene)	> 1000 nM
CC[C@H](C)[C@@H]1NC(=O)[C@H](CC(C)C)NC(=O)C(C)(C)NC(=O)[C@@H](NC(=O)[C@H](CCC(C)C)NC(=O)[C@H](CCC(=O)O)NC(=O)[C@@H]2C[C@@H](NC(=O)CN3CCN(CC(=O)O)CCN(CC(=O)O)CCN(CC(=O)O)CC3)CN2C(=O)[C@H](Cc2cccc3ccccc23)NC(=O)[C@H](Cc2c[nH]c3ccccc23)NC(=O)[C@H](CC(=O)O)NC(C)=O)CSCc2cccc(c2)CSC[C@@H](C(N)=O)NC1=O [GIP-394, Ac-Asp-Trp-1Ni-Tap(DOTA)-Glu-Hle-[Cys(3MeBn)-Aib-Leu-Ile-Cys]-NH2] (Ac-DW[1Nal][Pro(trans-4-NH2)](DOTA)E[hLeu]C[Aib]LIC-NH2; linker 7-11 via mXylylene)	10 to 79.4 nM

Same assay, conditions: competition with 20 nM GIP-057, 4° C., 1 hour, read-out: pIC50 Category (converted)

Molecule	IC50
CC[C@H](C)[C@@H]1NC(=O)[C@H](CC(C)C)NC(=O)C2(CCN(C(=O)CN3CCN(CC(=O)O)CCN(CC(=O)O)CCN(CC(=O)O)CC3)CC2)NC(=O)[C@@H](NC(=O)[C@@H](CC(C)C)NC(=O)[C@H](CCC(=O)O)NC(=O)[C@@H]2C[C@@H](N)CN2C(=O)[C@H](Cc2c[nH]c3ccc(Cl)cc23)NC(=O)[C@H](Cc2c[nH]c3ccccc23)NC(=O)[C@H](CC(=O)O)NC(=O)CCCC(=O)NC[C@H](O)[C@@H](O)[C@H](O)[C@H](O)CO)CSCc2cccc(n2)CSC[C@@H](C(=O)NC2CCN(CC(=O)N[C@H](CCC(=O)NC[C@H](O)[C@@H](O)[C@H](O)[C@H](O)CO)C(N)=O)CC2)NC1=O [GIP-051, AGLU-Glutar-Asp-Trp-5Clw-Tap-Glu-leu-[cys(2Lut)-Apc(DOTA)-Leu-Ile-Cys]-APAc-glu(AGLU)-NH2] ({NH(1-deoxy-D-glucityl)-Glutaryl}-DW[Trp(5-Cl)][Pro(4R-NH2)]E[dL]C[Api](DOTA)LIC[X1][dE](NH(1-deoxy-D-glucityl))-NH2; linker 7-11 via Pyridine(2,6-diCH2))	10 to 79.4 nM
CC[C@H](C)[C@@H]1NC(=O)[C@H](CC(C)C)NC(=O)C2(CCOCC2)NC(=O)[C@@H](NC(=O)[C@@H](CC(C)C)NC(=O)[C@H](CCC(N)=O)NC(=O)[C@@H]2C[C@@H](O)CN2C(=O)[C@H](Cc2c[nH]c3ccc(Cl)cc23)NC(=O)[C@H](Cc2c[nH]c3ccccc23)NC(=O)[C@H](CC(=O)O)NC(C)=O)CSCc2cccc(n2)CSC[C@@H](C(N)=O)NC1=O [GIP-193, Ac-Asp-Trp-5Clw-Hyp-Gln-leu-[Cys(2Lut)-Thp-Leu-Ile-Cys]-NH2] (Ac-DW[Trp(5-Cl)][Hyp]Q[dL]C[Thp]LIC-NH2; linker 7-11 via Pyridine(2,6-diCH2))	< 10 nM
CC[C@H](C)[C@@H]1NC(=O)[C@H](CC(C)C)NC(=O)C(C)(C)NC(=O)[C@@H](NC(=O)[C@@H](CC(C)C)NC(=O)[C@H](CCC(=O)O)NC(=O)[C@@H]2C[C@@H](O)CN2C(=O)[C@H](Cc2c[nH]c3ccc(Cl)cc23)NC(=O)[C@H](Cc2c[nH]c3ccccc23)NC(=O)[C@H](CC(=O)O)NC(=O)CCC(=O)NCCCOCCOCCOCCCNC(=O)CN2CCN(CC(=O)O)CCN(CC(=O)O)CCN(CC(=O)O)CC2)CSCc2cccc(c2)CSCCNC1=O [GIP-094, DOTA-Ttds-Asp-Trp-5Clw-Hyp-Glu-leu-[Cys(3MeBn)-Aib-Leu-Ile-AET]] ({X3-Suc}-DW[Trp(5-Cl)][Hyp]E[dL]C[Aib]LI; linker 7-C via X7)	< 10 nM

What follows are molecules tested against human Gastric Inhibitory Peptide Receptor (human) (UniProt P48546) (assay: FACS competition with GIP-057 on CHO-K1-hGIPR cells; pIC50 category A: >8.0). Details: not given.

Molecule	pIC50
DOTA-APAc-Asp-Trp-5Clw-Hyp-Glu-leu-[Cys(2Lut)-Apc(AGLU-Glutar)-Leu-Ile-Cys]-APAc-glu(AGLU)-NH2 (peptide)	> 8 pic50
Ac-Cya-Trp-5Clw-Hyp-Glu-leu-[Cys(2Lut)-Thp-Leu-Ile-Cys]-NH2 (peptide)	> 8 pic50
DOTA-Asp-Trp-5Clw-Hyp-Glu-leu-[Cys(2Lut)-Thp-Leu-Ile-Cys]-NH2 (peptide)	> 8 pic50
B1	> 8 pic50
B2	> 8 pic50
B3	> 8 pic50
B4	> 8 pic50
